# Ends that are not written are not given here.
# How the values were obtained:
# [1] = target: T1, TPR1 domain of the Hop protein (Homo sapiens, UniProt P31948); assay: Isothermal titration calorimetry, binding to TPR1 domain of Hop; settings: ITC at 25° C.
# T1 construct: Codons 1-118 (TPR1) and 223-352 (TPR2A) of human Hop protein were cloned; hexahistidine (TEV-cleavable) (N, cleaved yes); made in house; host or cells: E. coli BL21 (DE3)
# Procedure: (§1) FIG. 6 is a plotting of the thermo-dynamic analysis of the interaction of TPR1 and TPR2A with the C-terminal sequences of Hsp70 and Hsp90. […] The sequence […] corresponds with the 12 C-terminal amino acid residues of Hsc70. […] corresponds with the 12 C-terminal amino acid residues of Hsp90.
# (§2) 40-50 aliquots of 5•μl peptide solution (7.5 mM-15 mM) were titrated at 25° C. by injection into a 1.36 ml TPR1 (TPR2A) solution (450•M-950•M) into the chamber. Alternatively, a solution of 3 mM TPR1 (TPR2A) in 180•M C70 (C90) solution was titrated in the chamber. […] Typically, the injections were continued past the saturation limits in order to be able to determine the heat of the ligand solution. After subtracting the solution heat, the calorimetric data was analysed, where an assessment software was used, which is provided by the manufacturer (version 2.9; MicroCal Software, Inc.).
# [2] = target: T2, TPR2A domain of the Hop protein (Homo sapiens, UniProt P31948); assay: Isothermal titration calorimetry, binding to TPR2A domain of Hop; settings: ITC at 25° C.
# T2 construct: Codons 1-118 (TPR1) and 223-352 (TPR2A) of human Hop protein were cloned; hexahistidine (TEV-cleavable) (N, cleaved yes); made in house; host or cells: E. coli BL21 (DE3)
# T2 sequence (P31948 223-352): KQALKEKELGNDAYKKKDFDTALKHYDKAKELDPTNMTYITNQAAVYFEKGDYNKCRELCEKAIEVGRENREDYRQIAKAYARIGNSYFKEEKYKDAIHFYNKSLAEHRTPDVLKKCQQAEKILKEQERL
# Procedure: as §1, §2
# [3] = target: T3, TPR1 domain of human Hop protein (codons 1-118) (human, UniProt P31948 4-118); assay: ITC, 25 °C
# T3 construct: Expressed in E. coli with a removable N-terminal His6 tag, which was cleaved with TEV; It could not be checked that the entry is exactly residues 1-118; also called N-terminal TPR domain of Hop
# T3 sequence (P31948 other isoform, or with tags, fused parts or gaps limits assumed): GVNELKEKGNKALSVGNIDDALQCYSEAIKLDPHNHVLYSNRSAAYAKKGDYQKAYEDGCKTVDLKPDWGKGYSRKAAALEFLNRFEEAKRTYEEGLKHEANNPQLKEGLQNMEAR
# Procedure: as §1
# (§3) 40-50 aliquots of 5•μl peptide solution (7.5 mM-15 mM) were titrated at 25° C. by injection into a 1.36 ml TPR1 (TPR2A) solution (450•M-950•M) into the chamber. Alternatively, a solution of 3 mM TPR1 (TPR2A) in 180•M C70 (C90) solution was titrated in the chamber. The peptides were dissolved in and the proteins were dialysed against the buffer G (25 mM, pH 7.5, 100 mM Kac, 5 mM MgAc₂). Typically, the injections were continued past the saturation limits in order to be able to determine the heat of the ligand solution. After subtracting the solution heat, the calorimetric data was analysed, where an assessment software was used, which is provided by the manufacturer (version 2.9; MicroCal Software, Inc.).
# [4] = target: T4, TPR2A domain of human Hop protein (codons 223-352) (human, UniProt P31948 225-352); assay: ITC, 25 °C
# T4 construct: Expressed in E. coli, His6 tag cleaved with TEV; A selenomethionine-labelled form was made for MAD phasing; also called TRP2A
# T4 sequence (P31948 other isoform, or with tags, fused parts or gaps limits assumed): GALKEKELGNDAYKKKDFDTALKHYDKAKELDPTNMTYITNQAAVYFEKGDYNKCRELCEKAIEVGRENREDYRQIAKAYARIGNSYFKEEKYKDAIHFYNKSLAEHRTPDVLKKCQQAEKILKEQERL
# Procedure: as §1, §3
# T1 sequence (P31948 1-118): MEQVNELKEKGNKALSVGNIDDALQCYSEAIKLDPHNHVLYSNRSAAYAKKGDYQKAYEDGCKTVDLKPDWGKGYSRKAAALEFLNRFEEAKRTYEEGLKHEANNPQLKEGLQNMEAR
molecule,measurement,setting,value
"C70: C-terminal fragment of human Hsp70 (codons 382-641), 25 kDa domain",stoichiometry N,"[1]; binding to TPR1, listed as 25 kDa fragment of human Hsp70",~1
"C90: C-terminal domain of human Hsp90 (codons 625-732), 12 kDa fragment including dimerisation domain and authentic C-terminal",stoichiometry factor,[2],~1
same,"binding to TPR1, result in words",[1],"weak, non-specific binding"
"GASSGPTIEEVD [Hsp70 Dodekamer, C-terminal dodecamer of Hsp70]","binding to TPR1, result in words",[1],same affinities
"GSGGPTIEEVD [Hsc70 Dodekamer, peptide of the 12 C-terminal amino acid residues of Hsc70]","binding to TPR1, result in words",[1],same affinities
Ac-EEVD (also called EEVD peptide; EEVD motif) [tetrapeptide EEVD],Kd,[3],~300 µM
same,Kd,[4],90 µM
Ac-GPTIEEVD (also called structured octamer peptide) [Hsp70 peptide GPTIEEVD],fold increase in affinity (against the EEVD motif alone),[3],20 fold
Ac-PTIEEVD [C-terminal heptamer peptide of Hsc70],Kd,[3],15 to 20 µM

# Reference: patent US20030138848A1, “3D structure of polypeptides containing a TPR-structure motif with chaperone-binding function, crystals thereof and compounds for inhibition of said polypeptides” (priority 2000, published 2003)
